Reference: US20240392020A1 (JIANGSU HENGRUI PHARMACEUTICALS, published 2024)
Residue numbers refer to the chain shown, from its start.

T1: hP40 (human, UniProt P29460 23-328)
T1 construct: bought
T1 sequence (looked up): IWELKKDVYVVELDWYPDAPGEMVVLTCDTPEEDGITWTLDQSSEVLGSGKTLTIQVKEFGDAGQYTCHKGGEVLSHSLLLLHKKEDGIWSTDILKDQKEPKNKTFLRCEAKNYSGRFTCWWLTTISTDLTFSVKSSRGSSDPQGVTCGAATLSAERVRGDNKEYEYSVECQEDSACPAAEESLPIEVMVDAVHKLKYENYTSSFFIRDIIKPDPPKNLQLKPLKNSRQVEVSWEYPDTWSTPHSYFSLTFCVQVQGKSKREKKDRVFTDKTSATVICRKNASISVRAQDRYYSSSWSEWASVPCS

T2: CEA on MKN45 cells (UniProt P06731 35-685)
T2 construct: whole, on cells
T2 sequence (looked up): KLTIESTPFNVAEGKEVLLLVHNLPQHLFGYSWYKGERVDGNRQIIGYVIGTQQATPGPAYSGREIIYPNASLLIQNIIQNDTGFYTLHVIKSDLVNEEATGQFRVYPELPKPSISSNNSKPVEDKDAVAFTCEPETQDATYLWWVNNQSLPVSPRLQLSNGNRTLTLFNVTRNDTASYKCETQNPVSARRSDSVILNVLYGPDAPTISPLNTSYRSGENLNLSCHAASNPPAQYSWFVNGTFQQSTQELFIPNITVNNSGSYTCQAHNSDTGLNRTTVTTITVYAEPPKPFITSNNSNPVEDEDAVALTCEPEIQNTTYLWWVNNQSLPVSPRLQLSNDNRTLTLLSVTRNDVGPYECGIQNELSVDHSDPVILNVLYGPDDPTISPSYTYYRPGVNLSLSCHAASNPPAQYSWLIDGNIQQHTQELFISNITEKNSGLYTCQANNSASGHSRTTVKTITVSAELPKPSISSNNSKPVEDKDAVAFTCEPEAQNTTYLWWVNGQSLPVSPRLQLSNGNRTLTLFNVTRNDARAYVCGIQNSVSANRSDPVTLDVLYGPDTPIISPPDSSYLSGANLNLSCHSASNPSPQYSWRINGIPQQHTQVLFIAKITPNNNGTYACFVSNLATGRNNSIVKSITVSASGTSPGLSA

B1: R10 (antibody)
heavy: not shown
light: DIQMTQSPSSLSASVGDRVTITCLASEGISSYLAWYQQKPGKAPKLLIYGANSLQTGVPSRFSGSGSATDYTLTISSLQPEDFATYYCQQSYKFPNTFGQGTKVEVKSGAPRFLTRPKAFVVSVGKDATLSSQIVGNPTPQVSWEKDQQPVAAGARFRLAQDGDLYRLTILDLALGDSGQYVSRARNAIGEAFACVGLQVDAEA
B2: R18 (antibody)
heavy: not shown
light: DIQMTQSPSSLSASVGDRVTITCLASEGISSYLAWYQQKPGKAPKLLIYGANSLQTGVPSRFSGSGSATDYTLTISSLQPEDFATYYCQQSYKFPNTFGQGTKVEVKDQPQFSGAPRFLTRPKAFVVSVGKDATLSSQIVGNPTPQVSWEKDQQPVAAGARFRLAQDGDLYRLTILDLALGDSGQYVSRARNAIGEAFACVGLQVDAEA
B3: R20 (antibody)
heavy: not shown
light: B2 light with L119K, T174H
B4: R22 (antibody)
heavy: not shown
light: B2 light with L119R, T174H
B5: R21 (antibody)
heavy: not shown
light: B2 light with L119R, T174K
B6: B3 (antibody)
heavy: not shown
light: SSELTQDPAVSVALGQTVRVTCQGDSLRSYYASWYQQKPGQAPVLVIYGKNNRPSGIPDRFSGSSSGNTASLTITGAQAEDEADYYCSSRDSSGNHWVFGGGTELTVLSEAPRFLTRPLAFVVSEGKDATLSSQIVGDPPPEVTWEKDQQPITAGARFRLAQDGDVYRLEILDLQLSDSGQYVSRARNAIGEAFACVGLQVDAEG
B7: B7 (antibody)
heavy: not shown
light: SSELTQDPAVSVALGQTVRVTCQGDSLRSYYASWYQQKPGQAPVLVIYGKNNRPSGIPDRFSGSSSGNTASLTITGAQAEDEADYYCSSRDSSGNHWVFGGGTELTVLSGAPRFLTRPLAFVVSVGKDATLSSQIVGNPTPQVSWEKDQLPVTAGARFRLAQDGDLYRLKILDLTLSDSGQYVSRARNAIGEAFACVGLEVGAEA
B8: B4 (antibody)
heavy: not shown
light: B7 light with Q149K, L150Q, T175Q, V197L, E200Q, G202D
B9: B5 (antibody)
heavy: not shown
light: B7 light
B10: B8 (antibody)
heavy: not shown
light: B7 light with A120S, F121Y, T130S, T175Q
B11: B1 (antibody)
heavy: not shown
light: B7 light with L150Q, T153A, T175A, S177G, E200Q, G202D
B12: B6 (antibody)
heavy: not shown
light: B7 light
B13: B2 (antibody)
heavy: not shown
light: SSELTQDPAVSVALGQTVRVTCQGDSLRSYYASWYQQKPGQAPVLVIYGKNNRPSGIPDRFSGSSSGNTASLTITGAQAEDEADYYCSSRDSSGNHWVFGGGTELTVLSGAPRFLTRPKSYTVSVGKDASLSSQIVGNPTPQVSWEKDQQPVAAGARFRLAQDGDLYRLKILDLALGDSGQYVSRARNAIGEAFACVGLQVDAEA
B14: U7 (antibody)
heavy: not shown
light: DIQMTQSPSSLSASVGDRVTITCRASQGISSWLAWYQQKPEKAPKSLIYAASSLQSGVPSRFSGSGSGTDFTLTISSLQPEDFATYYCQQYNIYPYTFGQGTKLEIKSGAPRFLTRPLAFVVSVGKDATLSSQIVGNPTPQVSWEKDQLPVTAGARFRLAQDGDLYRLKILDLTLSDSGQYVSRARNAIGEAFACVGLEVGAEA
B15: U4 (antibody)
heavy: not shown
light: B14 light with Q148K, L149Q, T174Q, V196L, E199Q, G201D
B16: U6 (antibody)
heavy: not shown
light: B14 light
B17: U8 (antibody)
heavy: not shown
light: B14 light with A119S, F120Y, T129S, T174Q
B18: U1 (antibody)
heavy: not shown
light: B14 light with L149Q, T152A, T174A, S176G, E199Q, G201D
B19: U5 (antibody)
heavy: not shown
light: B14 light
B20: U3 (antibody)
heavy: not shown
light: DIQMTQSPSSLSASVGDRVTITCRASQGISSWLAWYQQKPEKAPKSLIYAASSLQSGVPSRFSGSGSGTDFTLTISSLQPEDFATYYCQQYNIYPYTFGQGTKLEIKSEAPRFLTRPLAFVVSEGKDATLSSQIVGDPPPEVTWEKDQQPITAGARFRLAQDGDVYRLEILDLQLSDSGQYVSRARNAIGEAFACVGLQVDAEG
B21: U2 (antibody)
heavy: not shown
light: DIQMTQSPSSLSASVGDRVTITCRASQGISSWLAWYQQKPEKAPKSLIYAASSLQSGVPSRFSGSGSGTDFTLTISSLQPEDFATYYCQQYNIYPYTFGQGTKLEIKSGAPRFLTRPKSYTVSVGKDASLSSQIVGNPTPQVSWEKDQQPVAAGARFRLAQDGDLYRLKILDLALGDSGQYVSRARNAIGEAFACVGLQVDAEA
B22: N5 (antibody)
heavy: not shown
light: EIVLTQSPGTLSLSPGERATLSCRASQNINNRFLAWYQQRPGQAPRLLIYAASSRATGVPDRFSGSGSGTDFTLTISRLEAEDFAMYHCQQYGSFPRTFGQGTMVDIKGIPPKIEALPSDISIDEGKVLTVACAFTGEPTPEVTWSCGGRKIHSQEQGRFHIENTDDLTTLIIMDVQKQDGGLYTLSLGNEFGSDSATVNIHIRSI
B23: C0 (antibody, human IgG1, kappa)
heavy: not shown
light: DIVMTQSPDSLAVSLGERATINCRASESVSIIGTNLIHWYQQKPGQPPKLLIYHASNLETGVPDRFSGSGSGTDFTLTISSLQAEDVAVYYCLQSRKIPYTFGGGTKVEIKRTVAAPSVFIFPPSDEQLKSGTASVVCLLNNFYPREAKVQWKVDNALQSGNSQESVTEQDSKDSTYSLSSTLTLSKADYEKHKVYACEVTHQGLSSPVTKSFNRGEC
B24: N0 (antibody, human IgG1, kappa)
heavy: not shown
light: EIVLTQSPGTLSLSPGERATLSCRASQNINNRFLAWYQQRPGQAPRLLIYAASSRATGVPDRFSGSGSGTDFTLTISRLEAEDFAMYHCQQYGSFPRTFGQGTMVDIKRTVAAPSVFIFPPSDEQLKSGTASVVCLLNNFYPREAKVQWKVDNALQSGNSQESVTEQDSKDSTYSLSSTLTLSKADYEKHKVYACEVTHQGLSSPVTKSFNRGEC
B25: N1 (antibody)
heavy: not shown
light: EIVLTQSPGTLSLSPGERATLSCRASQNINNRFLAWYQQRPGQAPRLLIYAASSRATGVPDRFSGSGSGTDFTLTISRLEAEDFAMYHCQQYGSFPRTFGQGTMVDIKGILQPDPPANITVTAVARNPRWLSVTWQDPHSWNSSFYRLRFELRYRAERSKTFTTWMVKDLQHHCVIHDAWSGLRHVVQLRAQEEFGQGEWSEWSPEAMGTPW
B26: C1 (antibody)
heavy: not shown
light: DIVMTQSPDSLAVSLGERATINCRASESVSIIGTNLIHWYQQKPGQPPKLLIYHASNLETGVPDRFSGSGSGTDFTLTISSLQAEDVAVYYCLQSRKIPYTFGGGTKVEIKGIPPKIEALPSDISIDEGKVLTVACAFTGEPTPEVTWSCGGRKIHSQEQGRFHIENTDDLTTLIIMDVQKQDGGLYTLSLGNEFGSDSATVNIHIRSI
B27: C2 (antibody)
heavy: not shown
light: B26 light
B28: N2 (antibody)
heavy: not shown
light: EIVLTQSPGTLSLSPGERATLSCRASQNINNRFLAWYQQRPGQAPRLLIYAASSRATGVPDRFSGSGSGTDFTLTISRLEAEDFAMYHCQQYGSFPRTFGQGTMVDIKFDPVYKVKPNPPHNLSVINSEELSSILKLTWTNPSIKSVIILKYNIQYRTKDASTWSQIPPEDTASTRSSFTVQDLKPFTEYVFRIRCMKEDGKGYWSDWSEEASGIT

target: T3, hIL-5 (human, UniProt P05113 20-134); experiment: ELISA
T3 construct: bought
Protocol: (§1) For an antibody targeting a soluble protein, the binding activity of the antibody against the soluble protein was detected by ELISA. […] After the blocking was completed, the blocking solution was discarded; and the plate was washed 3 times with a PBST buffer (pH 7.4, PBS containing 0.1% tween-20). 100 μL of the antibody solution diluted in a gradient was added to each well, and the mixture was incubated at 37° C. for 1 h. After the incubation was completed, the plate was washed 3 times with PBST. […] The plate was washed 3 times with PBST. […] The reaction was stopped by adding 50 μL of 1 M H₂SO₄ to each well. The absorbance values at 450 nm were read on a microplate reader, the binding curves of the antibodies to an antigen were fitted with software, and the EC₅₀ values were calculated.

EC50 | Binder
3.2 nM | B1

target: T3, hIL-5; experiment: ELISA; remark: another data set of the same source
Protocol: as §1

EC50 | Binder
0.44 nM | B2
0.39 nM | B3
0.39 nM | B4
0.37 nM | B5
0.37 nM | B1

target: T4, hBAFF (human, UniProt Q9Y275 134-285); experiment: ELISA
T4 construct: bought
Protocol: as §1

EC50 | Binder
0.5 nM | B6
0.35 nM | B7
0.25 nM | B8
0.29 nM | B9
0.16 nM | B10
0.28 nM | B11
0.19 nM | B12
0.19 nM | B13

target: T1, hP40; experiment: ELISA
Protocol: as §1

EC50 | Binder
0.07 nM | B14
0.06 nM | B15
0.11 nM | B16
0.16 nM | B17
0.03 nM | B18
0.11 nM | B19
0.02 nM | B20
0.07 nM | B21

target: T2, CEA on MKN45 cells; experiment: FACS, MKN45 cells

EC50 | Binder
5.24 nM | B22
5.81 nM | B23
0.82 nM | B24
1230 nM | B25
17.7 nM | B26
16.5 nM | B27
766 nM | B28
